Data: PMC4814574

Target: C/EBPα WT (ivt) (human, UniProt P49715 1-358)
Assay: EMSA; supershift by C/EBPα antibody; 10 mM HEPES-KOH pH 7.9, 50 mM KCl, 2.5 mM MgCl2, 1 mM DTT, 10% glycerol, 1 ug BSA, 0.5 ug poly(dI-dC), 25 ul, on ice 20 min; 6% gel, 0.5x TBE, 4 °C

Chain of C/EBPα WT (ivt) (P49715 whole entry): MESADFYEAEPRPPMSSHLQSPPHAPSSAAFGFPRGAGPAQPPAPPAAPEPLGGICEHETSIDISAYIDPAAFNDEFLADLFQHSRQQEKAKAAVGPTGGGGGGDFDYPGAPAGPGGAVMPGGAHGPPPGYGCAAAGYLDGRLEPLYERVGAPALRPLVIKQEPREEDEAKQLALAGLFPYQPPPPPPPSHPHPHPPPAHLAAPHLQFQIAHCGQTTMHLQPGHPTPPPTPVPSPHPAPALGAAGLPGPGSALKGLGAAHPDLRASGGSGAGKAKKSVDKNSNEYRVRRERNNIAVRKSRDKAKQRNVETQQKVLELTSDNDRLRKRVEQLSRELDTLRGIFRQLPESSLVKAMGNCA

B1: G-CSF receptor promoter C/EBP site oligonucleotide (dsDNA)
DNA 1: CTAGGGCTTGCGCAATCTATATTCG
DNA 2: CGAATATAGATTGCGCAAGCCCTA
B1: binds.
